Laboratory results from US20200317768A1 (published 2020).

Assays:
[1] = biological target: T1, human FcγRIIIaV extracellular domain, C-terminal His-tag (human, UniProt P08637 17-208); test: SPR (BIACORE), antibody captured, FcγR analyte
T1 construct: also called FcgRIIIaV; not shown: His-tag added to C-terminus

[2] = biological target: T2, human FcγRIIb extracellular domain, C-terminal His-tag (human, UniProt P31994 43-217); test: SPR (BIACORE), antibody captured, FcγR analyte
T2 construct: also called humanFcgRIIb; not shown: His-tag added to C-terminus
T2 sequence: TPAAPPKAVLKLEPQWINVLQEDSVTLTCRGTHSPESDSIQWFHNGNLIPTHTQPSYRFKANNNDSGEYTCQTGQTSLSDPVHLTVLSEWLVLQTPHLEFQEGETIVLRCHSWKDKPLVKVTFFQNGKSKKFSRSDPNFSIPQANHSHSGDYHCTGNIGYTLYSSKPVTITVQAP

[3] = biological target: T3, cynomolgus monkey FcγRIIIaS extracellular domain, C-terminal His-tag (cynomolgus monkey, UniProt A3RFZ7 21-206 (rhesus entry)); test: SPR (BIACORE), antibody captured, FcγR analyte
T3 construct: also called cyno FcγRIIIaS; cynoFcγRIIIaS; not shown: His-tag added to C-terminus
T3 sequence (A3RFZ7 21-206): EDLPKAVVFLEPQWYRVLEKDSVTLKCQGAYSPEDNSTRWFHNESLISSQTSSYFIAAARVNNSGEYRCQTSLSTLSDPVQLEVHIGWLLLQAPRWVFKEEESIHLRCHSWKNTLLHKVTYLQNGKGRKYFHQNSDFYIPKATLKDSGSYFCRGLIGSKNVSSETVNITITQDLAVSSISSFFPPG

[4] = biological target: T1, human FcγRIIIaV extracellular domain, …; test: SPR (BIACORE); KD of parent SG1 / KD of variant;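 also: relative to parent M103205H795-SG1 carrying the SG1 human heavy chain constant region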
[5] = biological target: T4, cynomolgus monkey FcγRIIb extracellular domain, C-terminal His-tag (cynomolgus monkey); test: SPR (BIACORE); KD of parent SG1 / KD of variant;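 also: relative to parent M103205H795-SG1 carrying the SG1 human heavy chain constant region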
T4 construct: also called cyno FcγRIIb; cynoFcγRIIb; not shown: His-tag added to C-terminus
T4 chain: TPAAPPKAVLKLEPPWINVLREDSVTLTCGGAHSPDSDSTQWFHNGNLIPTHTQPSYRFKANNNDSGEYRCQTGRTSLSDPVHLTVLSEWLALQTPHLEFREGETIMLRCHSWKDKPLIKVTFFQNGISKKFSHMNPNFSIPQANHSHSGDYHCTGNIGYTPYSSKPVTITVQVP

[6] = biological target: T2, human FcγRIIb extracellular domain, …; test: SPR (BIACORE); KD of parent SG1 / KD of variant;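 also: relative to parent M103205H795-SG1 carrying the SG1 human heavy chain constant region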
[7] = biological target: T5, human FcγRIIaH extracellular domain, C-terminal His-tag (human, UniProt P12318 34-217); test: SPR (BIACORE); KD of parent SG1 / KD of variant;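 also: relative to parent M103205H795-SG1 carrying the SG1 human heavy chain constant region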
T5 construct: also called human FcγRIIa (type H); FcgRIIaH; not shown: His-tag added to C-terminus
T5 sequence: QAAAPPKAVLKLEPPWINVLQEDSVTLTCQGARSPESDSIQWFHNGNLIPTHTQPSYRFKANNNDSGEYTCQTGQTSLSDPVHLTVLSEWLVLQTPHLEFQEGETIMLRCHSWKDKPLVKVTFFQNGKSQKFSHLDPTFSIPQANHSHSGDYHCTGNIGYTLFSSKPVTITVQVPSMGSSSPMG

[8] = biological target: T3, cynomolgus monkey FcγRIIIaS …; test: SPR (BIACORE); KD of parent SG1 / KD of variant
[9] = biological target: T6, cynomolgus monkey FcγRIIa1 extracellular domain, C-terminal His-tag (cynomolgus monkey); test: SPR (BIACORE); KD of parent SG1 / KD of variant
T6 construct: also called cyno FcγRIIa1; cynoFcgRIIa1; not shown: His-tag added to C-terminus
T6 chain: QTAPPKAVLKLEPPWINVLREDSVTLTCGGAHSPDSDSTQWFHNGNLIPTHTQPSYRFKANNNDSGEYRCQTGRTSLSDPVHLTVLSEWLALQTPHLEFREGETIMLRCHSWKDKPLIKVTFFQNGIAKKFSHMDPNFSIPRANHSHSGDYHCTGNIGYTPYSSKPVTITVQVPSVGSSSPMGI

[10] = biological target: T7, cynomolgus monkey FcγRIIa2 extracellular domain, C-terminal His-tag (cynomolgus monkey); test: SPR (BIACORE); KD of parent SG1 / KD of variant
T7 construct: also called cyno FcγRIIa2; cynoFcgRIIa2; not shown: His-tag added to C-terminus
T7 chain: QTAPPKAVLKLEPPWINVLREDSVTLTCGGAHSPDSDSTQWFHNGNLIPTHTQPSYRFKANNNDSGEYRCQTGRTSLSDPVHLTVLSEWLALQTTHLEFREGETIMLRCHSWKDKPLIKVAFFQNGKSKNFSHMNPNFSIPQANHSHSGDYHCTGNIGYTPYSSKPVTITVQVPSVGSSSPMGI

[11] = biological target: T8, cynomolgus monkey FcγRIIa3 extracellular domain, C-terminal His-tag (cynomolgus monkey); test: SPR (BIACORE); KD of parent SG1 / KD of variant
T8 construct: also called cyno FcγRIIa3; cynoFcgRIIa3; not shown: His-tag added to C-terminus
T8 chain: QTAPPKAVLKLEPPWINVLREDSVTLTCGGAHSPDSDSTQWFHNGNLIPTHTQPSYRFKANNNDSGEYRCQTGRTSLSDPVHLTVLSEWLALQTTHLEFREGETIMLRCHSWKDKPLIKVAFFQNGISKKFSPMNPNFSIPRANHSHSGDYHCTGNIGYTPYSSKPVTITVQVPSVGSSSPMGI

T1 sequence (P08637 17-208 F176V): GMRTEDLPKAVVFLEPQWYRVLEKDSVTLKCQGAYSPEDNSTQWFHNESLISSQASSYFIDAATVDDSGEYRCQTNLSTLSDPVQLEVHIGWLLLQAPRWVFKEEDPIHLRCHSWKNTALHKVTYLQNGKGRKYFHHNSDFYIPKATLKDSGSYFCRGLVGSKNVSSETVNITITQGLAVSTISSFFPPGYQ

B1: MS_M103205H795-SG1/M103202L889-SK1 (antibody, human IgG1, kappa)
heavy: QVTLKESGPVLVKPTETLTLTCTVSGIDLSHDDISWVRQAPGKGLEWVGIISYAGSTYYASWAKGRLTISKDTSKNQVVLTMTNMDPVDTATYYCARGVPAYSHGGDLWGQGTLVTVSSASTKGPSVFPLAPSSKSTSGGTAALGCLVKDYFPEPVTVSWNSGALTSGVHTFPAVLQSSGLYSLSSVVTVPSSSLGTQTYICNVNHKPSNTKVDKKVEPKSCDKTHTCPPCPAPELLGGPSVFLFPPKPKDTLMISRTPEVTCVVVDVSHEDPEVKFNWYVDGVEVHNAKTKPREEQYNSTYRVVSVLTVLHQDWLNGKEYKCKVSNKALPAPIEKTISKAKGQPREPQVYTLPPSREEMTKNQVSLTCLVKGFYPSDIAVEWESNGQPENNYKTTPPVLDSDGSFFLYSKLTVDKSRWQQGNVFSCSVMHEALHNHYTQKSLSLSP
light: DIVMTQSPATLSLSPGERATLSCTSSQSVYHANWLSWFQQKPGQPPKLLIYWASTLAYGVPSRFSGSGSGTDFTLTISSLQPEDAATYYCAGGYGGGRYAFGQGTKVEIKRTVAAPSVFIFPPSDEQLKSGTASVVCLLNNFYPREAKVQWKVDNALQSGNSQESVTEQDSKDSTYSLSSTLTLSKADYEKHKVYACEVTHQGLSSPVTKSFNRGEC
notes: Parent antibody with SG1 human heavy chain constant region; also called MS1032LO06-SG1
Kd [1]: 620 nM | Kd [2]: 4700 nM | Kd [3]: 280 nM | KD fold (SG1 = 1) [4]: 1 fold | KD fold (SG1 = 1) [5]: 1 fold | KD fold (SG1 = 1) [6]: 1 fold | KD fold (SG1 = 1) [7]: 1 fold | KD fold (SG1 = 1) [8]: 1 fold | KD fold (SG1 = 1) [9]: 1 fold | KD fold (SG1 = 1) [10]: 1 fold | KD fold (SG1 = 1) [11]: 1 fold
